Values quoted from earlier work, collected in PMC3124085.

Target: HIV-1 Gag p6 p6 (Human immunodeficiency virus 1) (UniProt O93182)
Sequence (O93182 450-500): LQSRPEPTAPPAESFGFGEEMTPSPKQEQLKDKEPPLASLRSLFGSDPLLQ

Chain of TSG101 UEV (Q99816 1-148): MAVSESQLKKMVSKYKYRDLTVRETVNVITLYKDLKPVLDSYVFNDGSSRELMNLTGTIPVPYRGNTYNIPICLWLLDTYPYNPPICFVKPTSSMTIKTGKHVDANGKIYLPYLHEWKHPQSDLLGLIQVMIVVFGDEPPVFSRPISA

For TSG101 UEV (from UniProt Q99816), the Kd is listed as 27 µM.
